Substrate in data set [1]: Nc1nc2c(ncn2[C@@H]2O[C@H](COP(=O)(O)OP(=O)(O)OP(=O)(O)O)[C@@H](O)[C@H]2O)c(=O)[nH]1
Put plainly: purified protein. The format is biochemical, Clostridium thermosuccinogenes. The following applies: 5 mM D-galactose, 10 mM MgCl2, 100 mM KCl, MOPS pH 7.0, 55 °C.

Substrate in data set [2]: Nc1ncnc2c1ncn2[C@@H]1O[C@H](COP(=O)(O)OP(=O)(O)OP(=O)(O)O)[C@@H](O)[C@H]1O
The data set is described as follows: purified protein. It is filed as biochemical, Clostridium thermosuccinogenes. The settings on record: 5 mM D-galactose, 10 mM MgCl2, 100 mM KCl, MOPS pH 7.0, 55 °C.

Our source for the Km and kcat values is publication PMC6543838, “Assessing Cofactor Usage in Pseudoclostridium thermosuccinogenes via Heterologous Expression of Central Metabolic Enzymes” (Frontiers in Microbiology, 2019).

One may read the Km as the concentration of substrate that gives half-maximal velocity.

B1: galactokinase (GalK), CDQ83_02810 (Clostridium thermosuccinogenes) (protein)
chain: DINQLKQKFIEIFGDNGEALRVFSSPGRVNLIGEHTDYNGGYVFPAALTLSSTVVARPRKDRQINLIATDLGIMVSASLDELEKHKDIKWGNYQLGVADELQKAGYKLVGCDMLFHDTVPLGSGLSSSAAIEVVTAITLVTLGNEAHGVNSGIDMVEMAKISQTAEHNYVGVNCGIMDQFASAMGKANHAIFLDCKDLSFEHVPLDLKGYRIVISNTKKKRSLGAVKYNERRSECEAGLEILKKAIPGISCLGEISAEQFEKNKHLITDEVVRKRVEHVIYEDDRVLKSVEALKKGDLHSFGRYMIESHNSLRDLYEVTGLELDTLVEEALKIDGVIGSRMTGAGFGGCTVSIVREDAVDRFIEDVGSAYTQKTGITAEFYVSEVGDGGREIK
notes: full length, N-terminal His6-TEV tag kept, E. coli Rosetta, HisTrap purified
As for B1, in data set [1], the Km was 35 µM and the kcat is reported as 2.56 ⋅ 10^3 U/umol of. In data set [2], the Km is 3980 µM and the kcat was 1.07 ⋅ 10^3 U/umol of.
